Experiment [1] deals with T1, full-length human RON expressed on HEK293T cells (HEK293T-hRON) (Homo sapiens, UniProt Q04912).
T1 construct: also called cell-expressed RON; source: HEK293T, transiently transfected (pcDNA3.1), on cells
As to the kind of experiment: flow cytometry on cells; 1/10 diluted crude periplasmic extracts on HEK293T-hRON and HEK293T cells; anti-FLAG then anti-mouse APC; positive if normalised ratio ≥2. The note with it: partners not purified.

Experiment [2] deals with T2, Recombinant extracellular domain of human RON (rhRON) (human, UniProt Q04912).
T2 construct: recepteur d'origine nantais (RON) receptor tyrosine kinase, human, recombinant extracellular domain; also called recepteur d'origine nantais; source: bought: R&D Systems
The experiment in a line: ELISA; rhRON (1 µg/ml) immobilised directly on 384-well plates; crude periplasmic extracts of nanobodies; detection by anti-FLAG HRP; positive if OD450 ratio to a negative control nanobody ≥2. The note with it: one partner purified.

In experiment [3] the target is T2, Recombinant extracellular domain of …. The experiment in a line: SPR; ProteOn; rhRON immobilised on GLC chip; 1/10 diluted crude periplasmic extracts injected 2 min at 45 µl/min; Langmuir model, off-rate only. The note with it: one partner purified.
Experiment [4] has the same target. As to the kind of experiment: ELISA; ligand competition: rhRON (1 µg/ml) immobilised directly; dilution series of purified nanobodies starting at 1 µM added together with 2 nM biotinylated MSP; MSP detected by extravidin peroxidase. To be noted: both partners purified.
The target of experiment [5] is T3, RON endogenously expressed on T-47D human breast cancer cells (Homo sapiens (T-47D cell line), UniProt Q04912). The experiment in a line: cell-based or functional assay.
Experiment [6] deals with T3, RON endogenously expressed on T-47D …. The experiment in a line: flow cytometry on cells; dilution series of purified nanobodies starting at 500 nM on T-47D cells endogenously expressing RON; anti-FLAG then anti-mouse APC. The note with it: one partner purified.

T3 sequence (Q04912 25-1400): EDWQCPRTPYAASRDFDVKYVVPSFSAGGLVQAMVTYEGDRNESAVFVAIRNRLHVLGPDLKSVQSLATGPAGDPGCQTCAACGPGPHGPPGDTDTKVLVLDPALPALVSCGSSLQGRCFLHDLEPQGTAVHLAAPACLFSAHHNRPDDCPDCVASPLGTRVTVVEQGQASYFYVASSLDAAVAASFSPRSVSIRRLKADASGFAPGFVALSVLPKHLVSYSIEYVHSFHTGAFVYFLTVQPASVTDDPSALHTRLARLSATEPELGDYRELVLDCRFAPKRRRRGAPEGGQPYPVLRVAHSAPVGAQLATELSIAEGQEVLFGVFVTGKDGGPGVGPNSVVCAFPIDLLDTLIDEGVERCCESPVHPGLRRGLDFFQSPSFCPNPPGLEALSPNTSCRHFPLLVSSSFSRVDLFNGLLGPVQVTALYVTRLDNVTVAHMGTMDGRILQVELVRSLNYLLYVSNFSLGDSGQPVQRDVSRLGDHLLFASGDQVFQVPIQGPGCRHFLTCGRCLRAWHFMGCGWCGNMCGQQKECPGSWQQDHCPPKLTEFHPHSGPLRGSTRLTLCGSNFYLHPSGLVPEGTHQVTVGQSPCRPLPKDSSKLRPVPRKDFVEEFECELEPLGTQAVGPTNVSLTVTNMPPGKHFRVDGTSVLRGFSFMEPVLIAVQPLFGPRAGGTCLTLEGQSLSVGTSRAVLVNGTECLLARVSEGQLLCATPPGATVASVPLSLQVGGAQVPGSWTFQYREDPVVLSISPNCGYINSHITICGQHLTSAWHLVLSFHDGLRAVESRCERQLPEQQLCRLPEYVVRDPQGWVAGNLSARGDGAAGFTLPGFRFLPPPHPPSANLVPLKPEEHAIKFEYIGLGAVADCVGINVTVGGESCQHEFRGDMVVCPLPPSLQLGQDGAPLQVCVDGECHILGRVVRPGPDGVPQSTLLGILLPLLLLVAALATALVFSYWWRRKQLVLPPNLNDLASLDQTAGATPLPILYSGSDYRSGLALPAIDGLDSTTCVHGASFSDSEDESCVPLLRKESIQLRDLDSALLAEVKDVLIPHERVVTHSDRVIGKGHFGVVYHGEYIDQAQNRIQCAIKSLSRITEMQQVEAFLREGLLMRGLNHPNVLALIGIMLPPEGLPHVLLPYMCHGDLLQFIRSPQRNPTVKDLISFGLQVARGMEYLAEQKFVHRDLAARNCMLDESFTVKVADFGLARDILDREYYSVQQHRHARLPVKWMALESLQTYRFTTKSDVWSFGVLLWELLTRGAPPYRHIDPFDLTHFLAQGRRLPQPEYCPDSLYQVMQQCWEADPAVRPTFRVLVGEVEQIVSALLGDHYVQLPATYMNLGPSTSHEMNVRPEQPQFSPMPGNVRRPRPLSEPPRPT
T1 sequence (Q04912 25-1400): as above
T2 sequence (Q04912 25-957): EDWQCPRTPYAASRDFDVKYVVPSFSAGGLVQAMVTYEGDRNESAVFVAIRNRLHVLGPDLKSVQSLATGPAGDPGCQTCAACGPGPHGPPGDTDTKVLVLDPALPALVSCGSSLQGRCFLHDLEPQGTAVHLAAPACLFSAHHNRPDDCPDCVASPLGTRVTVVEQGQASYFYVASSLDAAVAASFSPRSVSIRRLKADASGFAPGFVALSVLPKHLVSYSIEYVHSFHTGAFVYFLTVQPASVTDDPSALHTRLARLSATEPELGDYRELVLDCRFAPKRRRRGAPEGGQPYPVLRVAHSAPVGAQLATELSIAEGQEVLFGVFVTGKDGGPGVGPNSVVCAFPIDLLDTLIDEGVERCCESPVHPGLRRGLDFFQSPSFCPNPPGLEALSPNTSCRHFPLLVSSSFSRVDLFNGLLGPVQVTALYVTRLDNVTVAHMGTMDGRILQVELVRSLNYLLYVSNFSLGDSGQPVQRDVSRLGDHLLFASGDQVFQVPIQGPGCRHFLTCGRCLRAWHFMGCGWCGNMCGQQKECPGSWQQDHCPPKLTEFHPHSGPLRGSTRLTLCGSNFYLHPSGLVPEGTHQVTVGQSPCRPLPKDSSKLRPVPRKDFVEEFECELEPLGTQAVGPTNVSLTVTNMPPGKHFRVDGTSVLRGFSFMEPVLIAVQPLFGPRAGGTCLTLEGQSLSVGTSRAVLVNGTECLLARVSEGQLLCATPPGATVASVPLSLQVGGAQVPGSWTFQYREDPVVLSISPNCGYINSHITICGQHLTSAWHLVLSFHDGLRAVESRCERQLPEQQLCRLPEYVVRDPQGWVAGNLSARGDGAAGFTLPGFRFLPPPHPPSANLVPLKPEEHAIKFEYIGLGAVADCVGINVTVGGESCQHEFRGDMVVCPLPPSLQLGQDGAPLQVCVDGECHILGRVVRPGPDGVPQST

B1: nanobody NGS00020 (VHH)
VHH: EVQLVESGGALVQAGDSLRVSCVASGRTFSRYAMGWFRQAPGKQREFVAAISWDGDSTSYANSLKGRFTISRDNAKNTGYLYMNSLIPEDTAVYYCAADRGRTTAWTYWGEGTLVTVSS
notes: majority-rule consensus of an NGS cluster; One of the 28 randomly selected NGS clusters; source: E. coli, crude periplasmic extract (synthetic DNA); not shown: FLAG3, C-terminal, kept
As for B1, the binding result in experiment [1] and in experiment [2] was “no binding” in each case.

B2: nanobody 11F05 (VHH)
VHH: EVQLVESGGGSVQAGGSLRLSCAASGRYRMGWFRQAPGKEREFVAVISASGGSTYYADSVKGRFTIARDNAKTMVYLQMNSLKPEDTAVYYCAAKVNYYGDYDLAQNYDYWGQGTQVTVSS
notes: From a llama immunised with rhRON; found by conventional screening and by NGS; source: E. coli, crude periplasmic extract; E. coli, purified; not shown: FLAG3, C-terminal, kept
As to B2, the off-rate (koff) in experiment [3] worked out at 0.00046 s⁻¹. Also, in experiment [4], the IC50 came out at 9.7 nM and the “maximum inhibition of MSP binding” value was found to be 98%. Moreover, in experiment [5], the “IC50 (M) inhibition of ERK phosphorylation induced by 1 nM MSP through RON on T-47D cells; purified nanobody, HTRF phospho-ERK” value (“IC50 (M) inhibition” for short) was 6e-09 M and the “maximum inhibition (efficacy) of MSP-induced ERK phosphorylation in T-47D cells” value (from here on “maximum inhibition (efficacy)”) turned out to be 100%. The molecule further came in with an EC50 in experiment [6] of 0.053 nM.

B3: nanobody 8G11 (VHH)
VHH: EVQLVESGGGLVQAGGSLRLSCAASGGIFDNYAMGWIRQAPGKEREFVAGIRWSESSTYYAASVKGRFTISRDNAKNTVYLQMNSLKPEDTAVYSCAAWFWISSTWSYFSENEPNYRGPGTLVTVSS
notes: as for B2
As to B3, the koff in experiment [3] came out at 0.00097 s⁻¹. In experiment [4], the IC50 is 240 nM and the “maximum inhibition of MSP binding” value was found to be 92%. Moreover, in experiment [5], the “IC50 (M) inhibition” value is 8.2e-08 M and the “maximum inhibition (efficacy)” value stood at 98%. The same molecule came in with an EC50 in experiment [6] of 34 nM.

B4: nanobody 5C06 (VHH)
VHH: EVQLVESGGGLVQPGGSLRLSCAASGFTLDYYAIGWFRQAPGKEREGVSCISSSDGSTYYADSVKGRFTISRDNAKNTVYLQMNSLKPEDTAVYYCATDLKRRCRDYARPQRGNDYWGQGTQVTVSS
notes: as for B2
For the molecule B4, the dissociation rate constant (koff) in experiment [3] turned out to be 0.0037 s⁻¹. Also, in experiment [4], the half-maximal inhibitory concentration (IC50) turned out to be 22 nM and the “maximum inhibition of MSP binding” value came out at 98%. Moreover, in experiment [5], the “IC50 (M) inhibition” value amounted to 1.2e-07 M and the “maximum inhibition (efficacy)” value was determined as 98%. This molecule also returned an EC50 in experiment [6] of 200 nM.

B5: nanobody NGS00009 (VHH)
VHH: EVQLVESGGGLVQAGDSLRLSCAASGRTFSTYALGWFRQAPGKEREFVAVISGRGGTTYYAGSVKGRLTISRDNAKNTVYLQMNSLKPEDTAVYYCAAGSDFGAVVDNRPDYWGQGTLVTVSS
notes: as for B1
Regarding B5, the binding result in experiment [2] was “binds”.

B6: nanobody 8F09 (VHH)
VHH: EVQLVESGGGLVQAGGSLRLSCEASGRYVMGWFRQAPGKEREFVAVISRSGGSTNYADSVKGRFSVSRDSAKNTVYLQMNDLKPEDTAVYYCAASNRYGTNVLVTTALYDYWGQGTQVTVSS
notes: as for B2
With B6, the dissociation rate constant (koff) in experiment [3] stood at 0.00064 s⁻¹. In experiment [4], the IC50 was determined as 12 nM and the “maximum inhibition of MSP binding” value was 98%. Moreover, in experiment [5], the “IC50 (M) inhibition” value is 5.2e-09 M and the “maximum inhibition (efficacy)” value was 99%. Further, the EC50 in experiment [6] turned out to be 0.2 nM.

B7: nanobody NGS00027 (VHH)
VHH: EVQLVESGGGLVQVGASLRLSCRASGGTFDDYAMGWFRQRPGEEREFVAVISWNGAMTYYLNHIKGRFTISRDNAKNTAYLQMNNLEPGDTAVYYCAAERTLGWGVNPEAYASWGQGTLVTVSS
notes: as for B1
Turning to B7, the binding result in experiment [1] and in experiment [2] was “no binding” each time.

B8: nanobody 8A12 (VHH)
VHH: EVQLVESGGGLVQAGGSLRVSCAASGLTFSRYNMGWFRQAPGKERDFVAAISSSDGSILYENSVKGRFTISRDNAENTVYLQMNSLEPEDTGVYYCAGSIVMSTLARKYDYWGQGTLVTVSS
notes: as for B2
For the molecule B8, the koff in experiment [3] was determined as 0.0028 s⁻¹. For the same molecule, in experiment [4], the IC50 came out at 7 nM and the “maximum inhibition of MSP binding” value came out at 96%. In addition, in experiment [5], the “IC50 (M) inhibition” value turned out to be 1.3e-08 M and the “maximum inhibition (efficacy)” value came to 100%. For the same molecule, in experiment [6], the midpoint of the response, the EC50, lay at 0.12 nM.

B9: nanobody 8C09 (VHH)
VHH: EVQLVESGGGLVQAGGSLRLACAASGRISSTYRMGWFRQAPGKEREFVAASRWSGGGVLYTDSVKGRFTISTDNGKNMVYLQMNSLRPEDTAVYYCAGRNYGTTEYGYWGQGTQVTVSS
notes: as for B2
Turning to B9, in experiment [3], the koff came out at 0.0023 s⁻¹. In experiment [4], the IC50 is 47 nM and the “maximum inhibition of MSP binding” value was 90%. Also, in experiment [5], the “IC50 (M) inhibition” value was found to be 3.3e-08 M and the “maximum inhibition (efficacy)” value turned out to be 100%. The 50% effective concentration (EC50) in experiment [6] came to 170 nM.

B10: nanobody 8D12 (VHH)
VHH: EVQLVESGGGLVQAGGSLRLSCAASGRYAMGWFRQAPGKEREFVGVISKSGGSTYIADSVKGRFTISRHNAKSTAYLQMNNLRPEDTAVYYCAANGFLGTSGRRVDQYDYWGQGTQVTVSS
notes: as for B2
Consider B10, for which the off-rate (koff) in experiment [3] worked out at 0.00051 s⁻¹. In addition, in experiment [4], the IC50 stood at 11 nM and the “maximum inhibition of MSP binding” value was 98%. In experiment [5], the “IC50 (M) inhibition” value amounted to 1.5e-08 M and the “maximum inhibition (efficacy)” value turned out to be 100%. Further, in experiment [6], the EC50 was 0.061 nM.

B11: nanobody 2C06 (VHH)
VHH: EVQLVESGGGLVQTGGSLRLSCARSGPTFSDYAMAWFRQARGKEREFVASITWIGGSTYYADSVKGRFTISRDSAKDTMYLQMNTLKPEDTADYYCAIARLGTYYGSYIRAYFNRGRYEYWGQGTQVTVSS
notes: as for B2
In the case of B11, the off-rate (koff) in experiment [3] came out at 0.0069 s⁻¹. Further, in experiment [4], the IC50 is 250 nM and the “maximum inhibition of MSP binding” value is 90%. Moreover, in experiment [5], the “IC50 (M) inhibition” value turned out to be 3e-07 M and the “maximum inhibition (efficacy)” value amounted to 92%. Besides, the 50% effective concentration (EC50) in experiment [6] was more than 1000 nM.

B12: nanobody NGS00003 (VHH)
VHH: EVQLVESGGGLVQPGGSLRLSCAASGFAFSRYWMYWVRQAPGKGLEWVSAISSSGSSTDYVDSVKGRFTVSRDNAKNTLYLQMNGLKSEDTAIYYCAKDTRQFIRSNYDNGGQGTLVTVSS
notes: as for B1
As to B12, the binding result in experiment [1] and in experiment [2] was “no binding” in each case.

For the origin of these results see article PMC5385344, “Large Diversity of Functional Nanobodies from a Camelid Immune Library Revealed by an Alternative Analysis of Next-Generation Sequencing Data” (Frontiers in Immunology, 2017).
